Measured values from patent US20240122847A1, “ORAL POLYPEPTIDE FORMULATIONS” (Bhami's Research Laboratory, Pvt. Ltd., priority 2022, published 2024).
Read-outs that look alike come from different tables or passages of the source.

How the values were obtained:
[1] = Pharmacokinetics of hGH in minipigs, sugar truffle buccal/sublingual vs intravenous, plasma hGH ELISA; assay type: in vivo; conditions: for Mean hGH levels: pigs, plasma
Experimental: Pharmacokinetic analysis was conducted in Female Minipigs weighing 12±1 kg for 2 days. Pigs in the oral treatment group was either fasted overnight or fed prior to the test sample administration. All the test animals in the treatment groups were administered with respective test formulation to the pre-designated animals. The animal was restrained and its head was held vertically, the jaws were pulled away, the tongue was gently lifted with a forceps followed by placement of a polypeptide formulation as described herein buccally/sublingually. After placing a polypeptide formulation as described herein, the snout was held together for about 1-2 mins to prevent the chewing of the polypeptide formulation. The time of dosage of each animal was noted. […] Plasma samples collected at different time points were analyzed by ELISA kit according to Creative Diagnostics protocol. This kit is based on sandwich enzyme-linked immuno-sorbent assay technology. […] Standards, test samples, and biotin-conjugated reagent were added to the wells and incubated. The HRP-conjugated reagent was then added, and the whole plate was incubated. Unbound conjugates were removed using wash buffer at each stage. TMB substrate was used to quantify the HRP enzymatic reaction.
Pharmacokinetic endpoints were determined using noncompartmental methods using PK Solutions software. AUC was approximated using the trapezoidal rule on the observed concentrations. […] The terminal elimination rate constant (λz) was estimated by log-linear regression on the terminal part of the concentration-time curve, and t ½ was then calculated as t ½=ln 2/X z.

[2] = minipig, in vivo
Experimental: Pharmacokinetic analysis was conducted in Female Minipigs weighing 12±1 kg for 2 days. Pigs in the treatment group were fasted overnight prior to the test sample administration. All the test animals in the treatment groups were administered with respective test formulation to the pre-designated animals. The animal was restrained and its head was held vertically, the jaws were pulled away, the tongue was gently lifted with a forceps followed by placement of a polypeptide formulation as described herein buccally/sublingually. After placing a polypeptide formulation as described herein, the snout was held together for about 1-2 mins to prevent the chewing of the polypeptide formulation. The time of dosage of each animal was noted. Blood samples were collected at aforementioned time points 0 min, 15 min, 30 min, 1 hour, 2 hours, 4 hours, 8 hours, 12 hours, 24 hours, and 48 hours into an EDTA-blood collection tubes for the separation of plasma to determine insulin levels by ELISA. Plasma samples collected at different time points were analyzed by ELISA kit according to ABBEXA protocol. This kit is based on sandwich enzyme-linked immuno-sorbent assay technology. An antibody, anti-insulin was pre-coated onto a 96-well plate. Standards, test samples, and biotin-conjugated reagent were added to the wells and incubated. The HRP-conjugated reagent was then added, and the whole plate was incubated. Unbound conjugates were removed using wash buffer at each stage. TMB substrate was used to quantify the HRP enzymatic reaction. After TMB substrate was added, only wells that contain sufficient INS will produce a blue colored product, which then changes to yellow after adding the acidic stop solution. The intensity of the yellow color is proportional to the INS amount bound on the plate. The Optical Density (OD) was measured spectrophotometrically at 450 nm in a microplate reader, from which the concentration of INS can be calculated.
Insulin was analyzed in plasma using a specific enzyme linked immunosorbent assay (ELISA). Pharmacokinetic endpoints were determined using noncompartmental methods using PK Solutions software. AUC was approximated using the trapezoidal rule on the observed concentrations. C max for each Insulin dose was derived as the maximum of all valid concentrations, and t max was then determined as the corresponding time point to C max. The terminal elimination rate constant (λz) was estimated by log-linear regression on the terminal part of the concentration-time curve, and t ½ was then calculated as t ½=ln 2/λz.

[3] = rat, in vivo
Experimental: Pharmacokinetic analysis was conducted in Female rats weighing 220-250 grams for 2 days. Rats in the oral treatment group was fasted overnight prior to the test sample administration. All the test animals in the treatment groups were administered with respective test formulation to the pre-designated animals. The animal was restrained and its head was held vertically, the jaws were pulled away, the tongue was gently lifted with a forceps followed by placement of a polypeptide formulation as described herein buccally/sublingually. After placing a polypeptide formulation as described herein, the snout was held together for about 1-2 mins to prevent the chewing of the polypeptide formulation. The time of dosage of each animal was noted. Blood samples were collected at aforementioned time points 0 min, 15 min, 30 min, 1 hour, 2 hours, 4 hours, 8 hours, 12 hours, 24 hours, and 48 hours into an EDTA-blood collection tubes for the separation of plasma to determine insulin levels by ELISA. Plasma samples collected at different time points were analyzed by ELISA kit according to ABBEXA protocol. This kit is based on sandwich enzyme-linked immuno-sorbent assay technology. An antibody, anti-insulin was pre-coated onto a 96-well plate. Standards, test samples, and biotin-conjugated reagent were added to the wells and incubated. The HRP-conjugated reagent was then added, and the whole plate was incubated. Unbound conjugates were removed using wash buffer at each stage. TMB substrate was used to quantify the HRP enzymatic reaction. After TMB substrate was added, only wells that contain sufficient INS will produce a blue colored product, which then changes to yellow after adding the acidic stop solution. The intensity of the yellow color is proportional to the INS amount bound on the plate. The Optical Density (OD) was measured spectrophotometrically at 450 nm in a microplate reader, from which the concentration of INS can be calculated.
Insulin was analyzed in plasma using a specific enzyme linked immunosorbent assay (ELISA). Pharmacokinetic endpoints were determined using noncompartmental methods using PK Solutions software. AUC was approximated using the trapezoidal rule on the observed concentrations. C max for each Insulin dose was derived as the maximum of all valid concentrations, and t max was then determined as the corresponding time point to C max. The terminal elimination rate constant (λz) was estimated by log-linear regression on the terminal part of the concentration-time curve, and t ½ was then calculated as t½=ln 2/λz.

[4] = in vivo
[5] = minipigs, buccal/sublingual hGH formulation
[6] = minipigs, intravenous hGH formulation

## hGH: human growth hormone (human recombinant), Norditropin NordiFlex; lyophilized microparticles in sugar truffle shell
[1]; [5]
  AUC 0-inf/D_obs: 49506.598 pg·h/mL/mg
  AUC 0-inf/D_pred: 49536.628 pg·h/mL/mg
  AUC 0-inf_obs: 123.766495 ng·h/mL
  AUC 0-inf_pred: 123.84157 ng·h/mL
  AUC 0-t: 118.956091 ng·h/mL
  AUC t-inf_obs: 4.810404 ng·h/mL
  AUC t-inf_pred: 4.885479 ng·h/mL
  AUMC 0-inf_obs: 1203569.518 pg/ml*h^2
  AUMC 0-inf_pred: 1208579.228 pg/ml*h^2
  AUMC 0-t: 882575.168 pg/ml*h^2
  AUMC t-inf_obs: 320994.350 pg/ml*h^2
  AUMC t-inf_pred: 326004.060 pg/ml*h^2
  Cl/F_obs: 0.000 (mg)/(pg/ml)/h
  Cl/F_pred: 0.000 (mg)/(pg/ml)/h
  Clast_obs: 0.25684 ng/mL
  Clast_pred: 0.260848 ng/mL
  Cmax: 27.12344 ng/mL
  Lambda_z: 0.053 h⁻¹
  MRT 0-inf_obs: 9.725 h
  MRT 0-inf_pred: 9.759 h
  MRT 0-t: 7.419 h
  Tlag: 0.000 h
  Tlast: 48.000 h
  Tmax: 1.000 h
  Vz/F_obs: 0.000 (mg)/(pg/ml)
  Vz/F_pred: 0.000 (mg)/(pg/ml)
  t½: 12.982 h
[1]; [6]
  AUC 0-inf/D_obs: 485023.532 pg·h/mL/mg
  AUC 0-inf/D_pred: 479198.128 pg·h/mL/mg
  AUC 0-inf_obs: 160.057765 ng·h/mL
  AUC 0-inf_pred: 158.135382 ng·h/mL
  AUC 0-t: 154.059131 ng·h/mL
  AUC t-inf_obs: 5.998634 ng·h/mL
  AUC t-inf_pred: 4.076251 ng·h/mL
  AUMC 0-inf_obs: 1696005.242 pg/ml*h^2
  AUMC 0-inf_pred: 1578826.575 pg/ml*h^2
  AUMC 0-t: 1330359.118 pg/ml*h^2
  AUMC 0-t/0-inf_pred: 0.843
  AUMC t-inf_obs: 365646.123 pg/ml*h^2
  AUMC t-inf_pred: 248467.457 pg/ml*h^2
  C0: 18.14454 ng/mL
  Cl_obs: 0.000 (mg)/(pg/ml)/h
  Clast_obs: 0.46304 ng/mL
  Clast_pred: 0.31465 ng/mL
  Cmax: 22.5132 ng/mL
  Lambda_z: 0.077 h⁻¹
  MRT 0-inf_obs: 10.596 h
  MRT 0-inf_pred: 9.984 h
  MRT 0-t: 8.635 h
  Tlast: 48.000 h
  Tmax: 0.500 h
  Vss_obs: 0.000 (mg)/(pg/ml)
  Vz_obs: 0.000 (mg)/(pg/ml)
  t½: 8.980 h
[1]; GI- IV, time 0 hrs
  Mean hGH levels: 18144.54 ± 1619.64 pg/mL
[1]; GI- IV, time 0.08 hrs
  Mean hGH levels: 20014.87 ± 620.32 pg/mL
[1]; GI- IV, time 0.5 hrs
  Mean hGH levels: 22513.2 ± 562.85 pg/mL
[1]; GI- IV, time 1 hrs
  Mean hGH levels: 22130.7 ± 728.54 pg/mL
[1]; GI- IV, time 4 hrs
  Mean hGH levels: 14910.13 ± 2908.87 pg/mL
[1]; GI- IV, time 8 hrs
  Mean hGH levels: 1159.19 ± 226.15 pg/mL
[1]; GI- IV, time 24 hrs
  Mean hGH levels: 1495.55 ± 291.77 pg/mL
[1]; GI- IV, time 48 hrs
  Mean hGH levels: 463.04 ± 90.34 pg/mL
[1]; GII- Buccal/sublingual, time 0 hrs
  Mean hGH levels: 20672.24 ± 1140.76 pg/mL
[1]; GII- Buccal/sublingual, time 0.08 hrs
  Mean hGH levels: 18582.31 ± 1303.34 pg/mL
[1]; GII- Buccal/sublingual, time 0.5 hrs
  Mean hGH levels: 26137.66 ± 4718.88 pg/mL
[1]; GII- Buccal/sublingual, time 1 hrs
  Mean hGH levels: 27123.44 ± 382.69 pg/mL
[1]; GII- Buccal/sublingual, time 4 hrs
  Mean hGH levels: 2681.8 ± 1281.33 pg/mL
[1]; GII- Buccal/sublingual, time 8 hrs
  Mean hGH levels: 2208.63 ± 86.73 pg/mL
[1]; GII- Buccal/sublingual, time 24 hrs
  Mean hGH levels: 971.98 ± 38.36 pg/mL
[1]; GII- Buccal/sublingual, time 48 hrs
  Mean hGH levels: 256.84 ± 13.49 pg/mL

## Human Insulin R: peptide/protein hormone structurally identical to human insulin synthesized through rDNA technology; SC marketed liquid or lyophilized microparticles in sugar truffle shell
[2]; 2.08 mg
  AUC 0-inf/D_obs: 7418.052 mU/L*h/(mg)
  AUC 0-inf/D_pred: 7439.299 mU/L*h/(mg)
  AUC 0-inf_obs: 2574.064 mU/L*h
  AUC 0-inf_pred: 2581.437 mU/L*h
  AUC 0-t: 2511.461 mU/L*h
  AUC t-inf_obs: 62.603 mU/L*h
  AUC t-inf_pred: 69.975 mU/L*h
  Cl/F_obs: 0.000 (mg)/(mU/L)/h
  Cl/F_pred: 0.000 (mg)/(mU/L)/h
  Cmax: 330.950 mU/L
  MRT 0-inf_obs: 11.492 h
  MRT 0-inf_pred: 11.639 h
  MRT 0-t: 10.214 h
  Tmax: 0.500 h
  Vz/F_obs: 0.002 (mg)/(mU/L)
  Vz/F_pred: 0.002 (mg)/(mU/L)
  t½: 10.234 h
[2]; sc, 0.347 mg
  AUC 0-inf/D_obs: 3483.581 mU/L*h/(mg)
  AUC 0-inf/D_pred: 3434.617 mU/L*h/(mg)
  AUC 0-inf_obs: 1208.803 mU/L*h
  AUC 0-inf_pred: 1191.812 mU/L*h
  AUC 0-t: 1101.784 mU/L*h
  AUC t-inf_obs: 107.019 mU/L*h
  AUC t-inf_pred: 90.028 mU/L*h
  Cl/F_obs: 0.000 (mg)/(mU/L)/h
  Cl/F_pred: 0.000 (mg)/(mU/L)/h
  Cmax: 316.870 mU/L
  MRT 0-inf_obs: 13.028 h
  MRT 0-inf_pred: 12.134 h
  MRT 0-t: 6.938 h
  Tmax: 2.000 h
  Vz/F_obs: 0.008 (mg)/(mU/L)
  Vz/F_pred: 0.008 (mg)/(mU/L)
  t½: 19.218 h
[3]; 0.52 mg
  AUC 0-inf/D_obs: 4373.827 mU/L*h/(mg)
  AUC 0-inf/D_pred: 4364.913 mU/L*h/(mg)
  AUC 0-inf_obs: 2274.390 mU/L*h
  AUC 0-inf_pred: 2269.755 mU/L*h
  AUC 0-t: 2204.699 mU/L*h
  AUC t-inf_obs: 69.691 mU/L*h
  AUC t-inf_pred: 65.056 mU/L*h
  Cl/F_obs: 0.000 (mg)/(mU/L)/h
  Cl/F_pred: 0.000 (mg)/(mU/L)/h
  Cmax: 331.520 mU/L
  MRT 0-inf_obs: 11.202 h
  MRT 0-inf_pred: 11.097 h
  MRT 0-t: 9.580 h
  Tmax: 0.250 h
  Vz/F_obs: 0.003 (mg)/(mU/L)
  Vz/F_pred: 0.003 (mg)/(mU/L)
  t½: 10.064 h
[3]; sc, 0.087 mg
  AUC 0-inf/D_obs: 6997.06 mU/L*h/(mg)
  AUC 0-inf/D_pred: 6935.40 mU/L*h/(mg)
  AUC 0-inf_obs: 2427.98 mU/L*h
  AUC 0-inf_pred: 2406.58 mU/L*h
  AUC 0-t: 2382.00 mU/L*h
  AUC t-inf_obs: 45.98 mU/L*h
  AUC t-inf_pred: 24.58 mU/L*h
  Cl/F_obs: 0.00 (mg)/(mU/L)/h
  Cl/F_pred: 0.00 (mg)/(mU/L)/h
  Cmax: 332.03 mU/L
  MRT 0-inf_obs: 8.70 h
  MRT 0-inf_pred: 8.26 h
  MRT 0-t: 7.74 h
  Tmax: 0.50 h
  Vz/F_obs: 0.00 (mg)/(mU/L)
  Vz/F_pred: 0.00 (mg)/(mU/L)
  t½: 7.21 h
[4]
  bioavailability when compared to SC or IV administration: greater than 7%
